Data taken from patent publication US20210115146A1.

Assays:
[1] = target: human EGFR (cell surface) (human) (UniProt P00533); test: FACS binding to A431 cells, upper panel and table; EC50 cell reads N/A, curve flat
[2] = target: human EGFR (cell surface) (human) (UniProt P00533); test: FACS binding to A431 cells, lower panel and table; curve flat
[3] = target: human EGFR (cell surface) (human) (UniProt P00533); test: FACS binding to A431 cells, lower panel and table; the curve is flat at the baseline, so this is the fit of a flat curve (see non_binding)
[4] = target: human EGFR (cell surface) (human) (UniProt P00533); test: FACS competition on A431 cells, blocked ligand EGF-biotin, MFI is the EGF-biotin signal; upper panel and table; IC50 cell reads N/A, no inhibition
[5] = target: human EGFR (cell surface) (human) (UniProt P00533); test: FACS competition on A431 cells, blocked ligand EGF-biotin, MFI is the EGF-biotin signal; lower panel and table; IC50 cell reads N/A, no inhibition
[6] = target: Macaca fascicularis EGFR (cell surface) (Macaca fascicularis); test: FACS binding to W562.CHOK1.cPro1.H6 cells (monkey EGFR), upper panel and table; curve flat
[7] = target: mouse EGFR (cell surface) (mouse) (UniProt Q01279); test: FACS binding to mouse EGFR cells; the table head prints W562.CHOK1.cPro1.H6; EC50 cell reads N/A, curve flat
[8] = target: mouse EGFR (cell surface) (mouse) (UniProt Q01279); test: FACS binding to W562-CHO-K1.mPro1.F3 cells (mouse EGFR), lower panel and table; EC50 cell reads N/A, curve flat
[9] = target: Macaca fascicularis EGFR (cell surface) (Macaca fascicularis); test: FACS binding to W562-CHO-K1.cPro1.H6 cells (monkey EGFR), lower panel and table; EC50 cell reads N/A, curve flat
[10] = target: Macaca fascicularis EGFR (cell surface) (Macaca fascicularis); test: FACS binding to W562.CHOK1.cPro1.H6 cells (monkey EGFR), upper panel and table; the curve is flat at the baseline, so this is the fit of a flat curve (see non_binding)

Work on Isotype (antibody) yielded a Top MFI [1] of 35.1 MFI, a TOP MFI [2] of 58.5 MFI and an EC50 [3] of 0.01 nM. For the same substance, the Bottom MFI [4] was 4680 MFI, the Bottom MFI [5] was 3890 MFI and the Top MFI [6] was 35.6 MFI. The Top MFI [7] was 32.3 MFI, the TOP MFI [8] was 85.6 MFI and the TOP MFI [9] was 54.9 MFI. The EC50 [10] was 0.07 nM.
